# Measured values published in patent publication US5780221A, “Identification of enantiomeric ligands” (Whitehead Institute for Biomedical Research, priority 1996, dated 1998).
# Square brackets hold non-standard residues; d marks the D form. Ends that are not written are not given here.
# B1: 96.2: D-vasopressin aptamer, ssDNA 96-mer (nucleic acid)
# chain: TCTAACGTGAATGATAGACGGCGAATCCCCAATGCGAAGCAGTGGTTTTGCAGTCGAGTTGCTGTGTGCCGATGAGCGTTAACTTATTCGACCAAA
# modifications: DNA, backbone not given here
# notes: D-vasopressin aptamer, ssDNA 96-mer
# B2: 96.4: D-vasopressin aptamer, ssDNA 96-mer (nucleic acid)
# chain: TCTAACGTGAATGATAGACGTTACGTGTCTACACTATGTCGAGTTGCTGTGTGCCGATGAACGTGGGATTAGAGCGTGTTAACTTATTCGACCAAA
# modifications: DNA, backbone not given here
# notes: as for B1
# B3: 69.1: D-vasopressin aptamer, deletion derivative of 96.4 (nucleic acid)
# chain: TCTAACGTGAATGATAGACGTTACGTGTCTACACTATGTCGAGTTGCTGTGTGCCGATGAACGTGGGAT
# modifications: chemistry not given here
# Key:
# (D)-Src SH3 domain [1] = molecular target: T1, (D)-Src SH3 domain (Gallus gallus, UniProt P00523); assay: Screening (selection rounds) of the phage library with the (D)-SH3 domain; type: binding, chicken; conditions: for Number of Isolates, high stringency: 4 rounds, 2 fold less (D)-Src SH3, 1 hr phage incubation, washes 10' in rounds 2-4
# (D)-Src SH3 domain [2] = molecular target: T1, (D)-Src SH3 domain; assay: as above; type: binding, chicken; conditions: for Number of Isolates, low stringency: 4 rounds, 16 hrs phage incubation, washes 3', 5', 10' in rounds 2-4; for isolates after four rounds of selection: 29 clones sequenced after four rounds
# From the text: The all D amino acid SH3 domain, sequence […] S-COOH-terminus (SEQ ID No: 1), residues 81-140 of chicken c-SRC, was synthesized on HMP resin (ABI/Perkin Elmer) with an ABI 431A peptide synthesizer and ABI fastmoc cycles (Fmoc chemistry with HBTU activation and capping with acetic anhydride). Protected D-amino acids were obtained from Bachem California., Bachem Bioscience, Advanced Chemtech, and Novabiochem. For D-Ile and D-Thr, the side chain enantiomers were used, in which the chirality of the side chain is also inverted relative to naturally occurring L-Thr and L-Ile. After completion of the synthesis, the NH2 -terminus of the peptide was modified with NHS-LC-biotin II (Pierce). After cleavage, the peptide was lyophilized, dissolved in 6 M guanidine HCl, pH 6.0, and dialyzed against 100 mM NaHPO4 and 100 mM NaCl, pH 6.0, with the use of dialysis tubing with a molecular cutoff of 3,500 daltons (D) (Spectra/Por). After dialysis the material was spun briefly to remove insoluble debris, and the supernatant was subsequently dialyzed against 5% acetic acid and lyophilized. The peptide was dissolved at a concentration of 3.3 mg/ml in Tris-buffered saline (50 mM Tris, pH 7.5, and 150 mM NaCl) containing 1 mM biotin. The full biotinylated 60 amino acid (D)-SH3 domain length product was refolded and purified by affinity chromatography on an all-(D) version of a known substrate for the Src SH3 domain (D)-[…] (SEQ ID NO:2), Yu, H., et al., Cell, 76:933 (1994)), that was biotinylated and immobilized on a streptavidin-agarose column (Pierce). This peptide is a derivative of an all (L)-peptide shown to bind to the all (L)-SH3 domain (Yu, H., et al., Cell,76:933-945 (1994)), with an NH2 -terminal YGG added to facilitate concentration determination (H. Edelhoch, Biochemistry, 6:1948 (1967)). The L-peptide with the same NH2 -terminal YGG served as a control ligand in the experiments.
# Single wells of a flatbottom 96 well high binding E.I.A./R.I.A. plate (Costar) were coated overnight with 10 μg streptavidin (Pierce) in 100 μl 100 mM NaHCO3 at 4° C. After a single wash with water, wells were incubated with 100 μl (10.7 μg) of biotinylated (D)-SH3 for 1 hr. at 20° C., blocked for 2 hrs with 30 mg/ml dialyzed bovine serum albumin (BSA) in 100 mM NaHCO3, and again incubated with 100 μl ([…]) of biotinylated (D)-SH3 for 1 hr. Unliganded streptavidin was blocked for 30 minutes by the addition of 8 μl 5 mM biotin in tris-buffered saline (TBS). Wells were subsequently washed 5 times with phosphate buffered saline (PBS) and 0.1% Tween-20, and incubated overnight with 50 μl of the phage stock in TBS/NaN3 and 50 μl of TBS, 0.1% Tween-20, 1 mg/ml BSA and 0.05% NaN3. Wells were subsequently washed by six additions of 200 μl of TBS, 0.1% Tween-20 and 1 mg/ml BSA with increasing incubation times in the later rounds of the selection procedure. (D)-SH3 bound phage particles were subsequently eluted by the addition of 100 μl D-SH3 ligand peptide (715 μM), sequence D-[…]-amide (SEQ ID No: 2), for 15 minutes at 4° C., at a final concentration of 700 to 1000 μM peptide. Acid elution of phages in this screen gives no detectable preferential binding to D-SH3 coated wells after four rounds of selection. The eluate was subsequently used to infect K91-kan cells. Briefly 100 μl eluate was mixed with 100 μl K91 Terrific Broth cells (prepared as described) an incubated for 20 minutes at room temperature. The mixture was subsequently transferred into an Erlenmeyer flask containing 20 ml LB/0.2 μg/ml tetracycline. After 1 hr incubation while shaking at 37° C., tetracycline was added to a final concentration of 20 μg/ml, appropriate dilutions were plated on tetracycline-containing plates ([…]) to determine the titer of the eluate and the culture was incubated at 37° C. for 12-16 hrs. Phage were isolated from the supernatant by two PEG precipitations and the resulting phage stock was used for titering to determine the yield, and for the subsequent round of selection. […]
# L-SH3 domain [3] = molecular target: T2, L-SH3 domain (Gallus gallus, UniProt P00523); assay: ELISA and NMR binding check of D-amino acid version of background sequence; design: species or system chicken; conditions: as judged by ELISA and NMR studies
# T2 construct: Residues 81 to 140 of chicken c-SRC were cloned; modified TrpLE leader (Met to Leu, Cys to Ala) (N, cleaved yes); His9 within the C-terminal region of the TrpLE leader (N, cleaved yes); made in house; host or cells: Escherichia coli BL21(DE3) pLysS, plasmid pMMHb-SRC SH3
# L-SH3 domain [4] = molecular target: T2, L-SH3 domain; assay: Screening of the phage library with the L-SH3 domain; type: binding, chicken
# Description: Phage display with the L-SH3 domain was also assessed. When the (L)-SH3 domain is used to screen a phage library (A12) for interacting sequences the poly-proline sequences that have been observed by others Rickles, R. J., et al., EMBO J., 13:5598 (1994); Sparks, A. B., J. Biol. Chem., 39:23853 (1994); Cheadle, C., et al., Ibid, 39:24034 (1994) are isolated.
# The sequences of these peptides have features consistent with those described for class I and class II ligands of the SH3 domain ((Yu, H., et al., Cell, 76:933 (1994); Rickles, R. J. et al., EMBO J., 13:5598 (1994; Sparks, A. B., et al., J. Biol. Chem., 269:23853 (1994); Cheadle, C., et al., ibid., p. 24034)).
# (L)-SH3 = molecular target: T3, (L)-SH3 (Gallus gallus, UniProt P00523); assay: Retention of bacterially expressed (L)-SH3 on peptide affinity column; type: binding; conditions: residues 81-140 of chicken c-Src
# T3 construct: E. coli BL21(DE3) pLysS, pMMHb TrpLE-His9 fusion, cleaved with CNBr
# Description: The L- and D-enantiomers of the chicken c-SRC domain were prepared by bacterial expression and chemical synthesis, respectively. The biotinylated, synthetic, 60-amino acid D-SH3 domain was refolded and purified by affinity chromatography, with a D-amino acid version of a known peptide ligand for the SH3 domain (Yu, H., et al., Cell, 76:933 (1994)).
# The all D amino acid SH3 domain, sequence […] S-COOH-terminus (SEQ ID No: 1), residues 81-140 of chicken c-SRC, was synthesized on HMP resin (ABI/Perkin Elmer) with an ABI 431A peptide synthesizer and ABI fastmoc cycles (Fmoc chemistry with HBTU activation and capping with acetic anhydride). Protected D-amino acids were obtained from Bachem California., Bachem Bioscience, Advanced Chemtech, and Novabiochem. For D-Ile and D-Thr, the side chain enantiomers were used, in which the chirality of the side chain is also inverted relative to naturally occurring L-Thr and L-Ile. After completion of the synthesis, the NH2 -terminus of the peptide was modified with NHS-LC-biotin II (Pierce). After cleavage, the peptide was lyophilized, dissolved in 6 M guanidine HCl, pH 6.0, and dialyzed against 100 mM NaHPO4 and 100 mM NaCl, pH 6.0, with the use of dialysis tubing with a molecular cutoff of 3,500 daltons (D) (Spectra/Por). […]
# [5] = molecular target: T4, lectin concanavalin A (Con A) (Canavalia ensiformis, UniProt P02866); assay: Con A screen of the phage library; type: binding; conditions: after 3 rounds
# T4 construct: mature circularly permuted chain
# Description: The library was made by ligation of a random PCR product into Sfi I-cut Fuse 5 vector. After ligation the reaction mixture was extracted with phenol and chloroform, ethanol-precipitated and taken up in 10 mM Tris/1 m mM EDTA (pH 8.0). The ligation product was subsequently transferred into electrocompetent MC1061 cells (Biorad) using a Bio-Rad E. coli pulser and 0.1 cm cuvettes. After non-restrictive growth for 1 hr aliquots of transformed cells were plated on tetracycline-containing plates to determine the efficiency of transformation, yielding an initial library of 3.6×108 transformants. The transformation mixture was subsequently diluted to a volume of 400 ml LB and 20 μg/ml tetracycline, and grown for an additional 14 hrs. A phage stock was prepared by two successive polyethylene glycol (PEG) precipitations of the culture supernatant as described. The phage stock was finally resuspended in tris buffered saline/NaN3 and titered by infection of K91-kan cells (A21), yielding a total of 2.8×10^11 transforming units. The randomness of the inserts was confirmed by sequencing of individual clones. 4×10^10 transforming units were subsequently used to infect K91-kan cells to generate an amplified library. After 18 hrs phage were purified by three repetitive PEG precipitations yielding 10 ml of the amplified phage library (1.2-10^12 transforming units/ml) in TBS/NaN3. […]
# [6] = system: synthetic D-vasopressin (DVP); assay: Affinity chromatography on D-vasopressin (DVP) resin, in vitro selection of ssDNAs; type: binding; conditions: for binding to DVP: affinity chromatography, positive ssDNA
# From the text: In the first step toward generating an antagonist of the peptide hormone L-vasopressin, an in vitro selection was used to isolate single-stranded DNAs (ssDNAs) that bind synthetic D-vasopressin (DVP). A starting pool of 10^16 different 96-mers was synthesized on a DNA synthesizer. Each pool molecule contained a central region with 60 random-sequence positions that was flanked by two 18-nt defined regions. Molecules within this starting pool that bind DVP were enriched by affinity chromatography. The affinity resin was prepared by coupling biotinylated DVP to streptavidin agarose. The ssDNA pool was radiolabeled, denatured, renatured in a physiological buffer and passed over this resin. […] Eluted pool was amplified by PCR using a negative-strand "primer-terminator", that is, an oligonucleotide bearing a central segment of non-nucleotide material that blocks further extension of the positive strand (Williams, K. P. and Bartel, D. P., Nucleic Acids Res., 23:4220-4221 (1995)). Such PCR results in a substantial size difference between the two product strands, facilitating gel-purification of the positivestrand ssDNA pool. This combination of affinity chromatography and PCR constituted one cycle of selection amplification.
# After thirteen iterations of the selectionamplification cycle the pool was cloned. […] Positive ssDNA of each sequence binds DVP and both have potential to form very similar secondary structures.
molecule,measurement,setting,value
CKRFVWRGQALC,"Number of Isolates, high stringency",(D)-Src SH3 domain [1],14
same,"Number of Isolates, low stringency",(D)-Src SH3 domain [2],10
same,isolates after four rounds of selection,(D)-Src SH3 domain [2],10 isolates
D-amino acid version of this sequence: D-amino acid version of CKRFVWRGQALC (SEQ ID No: 13) ([dC][dK][dR][dF][dV][dW][dR]G[dQ][dA][dL][dC]; cysteine pairing not given here),binding to the L-SH3 domain,L-SH3 domain [3],fails to bind to the L-SH3 domain
CLSGLRLGLVPC,"Number of Isolates, low stringency",(D)-Src SH3 domain [2],2
CSRASWRGLLFC,"Number of Isolates, high stringency",(D)-Src SH3 domain [1],1
CLMGLRLGLLPC,sequences revealed after fifth round of selection,(D)-Src SH3 domain [1]; fifth round with neutravidin as a matrix,only sequences of the fdSRC-2-type
same,"Number of Isolates, low stringency",(D)-Src SH3 domain [2],4
SRMSPLVPLRNS,isolates after four rounds of selection with the L-SH3 domain,L-SH3 domain [4],one
"(D)-YGGRELPPLPRF ([dY]GG[dR][dE][dL][dP][dP][dL][dP][dR][dF]; also: biotinylated, site not given here) [all-(D) version of a known substrate for the Src SH3 domain]",retention of bacterially expressed (L)-SH3 on peptide column,(L)-SH3,not on the (D)-enantiomer
AS M W M Y P Y P W G V SA (ASMWMYPYPWGVSA),"number in parentheses after sequence, Con A screen",[5],9
AS W R Y N Y A F M R Y SA (ASWRYNYAFMRYSA),"number in parentheses after sequence, Con A screen",[5],1
CAYGFKLGLIKC [clone has alanine to arginine substitution directly amino terminal to the insert],"Number of Isolates, low stringency",(D)-Src SH3 domain [2],1
CWYLGYWPGQEC,"Number of Isolates, low stringency",(D)-Src SH3 domain [2],12
same,isolates after four rounds of selection,(D)-Src SH3 domain [2],12 isolates
CLARSRLPAIPS,isolates after four rounds of selection with the L-SH3 domain,L-SH3 domain [4],nine
B1,binding to DVP,[6],binds DVP
B2,binding to DVP,[6],binds DVP
B3,elution from the DVP resin by L-vasopressin,"[6]; DVP resin, L-vasopressin",not eluted from the DVP resin by L-vasopressin
same,binding to DVP,[6],appears to bind DVP better than does the parent sequence
